Source: article PMC9363494

Assays:
Y39E-α-syn = Y39E-α-syn (UniProt P37840)
full-length α-synuclein = full-length α-synuclein (UniProt P37840); test: NMR titration; 1H-15N HSQC of 0.3 mM 15N-enriched FL- or CT-α-syn titrated with PDI (mole ratios 10:1 to 1:1, 0-300 μM PDI); 20 mM HEPES, 100 mM NaCl, 5 mM TCEP, pH 7.0, 10% D2O, 15 °C; KD from fits of the average CSPs of residues in segment 1 and in segment 2

| elongation rate constant (k) of aggregation of Y39E-α-syn with PDI, thioflavin T fluorescence (without PDI: ND, plateau was not reached) (Y39E-α-syn) | half-time (t1/2) of aggregation of Y39E-α-syn with PDI, thioflavin T fluorescence (without PDI: ND, plateau was not reached) (Y39E-α-syn) [h] | lag time (tlag) of aggregation of Y39E-α-syn with PDI, thioflavin T fluorescence (without PDI: ND, plateau was not reached) (Y39E-α-syn) [h] | KD of segment 1 (full-length α-synuclein) [µM] | KD of segment 2 (full-length α-synuclein) [µM] | Substance |
| --- | --- | --- | --- | --- | --- |
| 0.21 | 46 | 36 |  |  | protein disulfide isomerase (from UniProt P07237 18-508) (enzyme) |
|  |  |  | 700 | 400 | protein disulfide isomerase, P07237 18-508 (enzyme; other documents disagree on this pair) |
